Results: patent publication US20190083615A1 (Merck Sharp & Dohme, published 2019)

Biological target: T1, human LAG3 (Lymphocyte Activation Gene-3) expressed on cells (human, UniProt P18627 23-525)
T1 sequence: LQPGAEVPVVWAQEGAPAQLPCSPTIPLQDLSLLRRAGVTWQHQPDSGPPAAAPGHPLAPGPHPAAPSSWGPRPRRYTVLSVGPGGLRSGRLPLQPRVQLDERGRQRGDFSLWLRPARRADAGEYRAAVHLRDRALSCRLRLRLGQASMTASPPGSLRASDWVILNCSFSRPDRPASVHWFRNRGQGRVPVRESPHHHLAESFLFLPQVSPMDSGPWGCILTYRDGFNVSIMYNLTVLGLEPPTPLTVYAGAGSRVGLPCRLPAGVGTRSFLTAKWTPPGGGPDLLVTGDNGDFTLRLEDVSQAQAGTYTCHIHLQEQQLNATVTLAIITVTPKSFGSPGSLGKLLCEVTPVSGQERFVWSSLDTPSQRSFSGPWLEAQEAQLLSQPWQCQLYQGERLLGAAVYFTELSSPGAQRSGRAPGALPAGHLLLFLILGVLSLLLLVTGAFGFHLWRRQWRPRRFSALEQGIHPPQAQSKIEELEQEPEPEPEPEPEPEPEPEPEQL
Experiment: cell-based or functional assay

B1: Ab6: humanized light chain 45AGX Humanized x[LAG3_H] mAb (LB145.22D2.E1.D1 (VL3)) Kappa (PX) and humanized heavy chain 73AHD Humanized x[LAG3_H] mAb … (antibody)
heavy: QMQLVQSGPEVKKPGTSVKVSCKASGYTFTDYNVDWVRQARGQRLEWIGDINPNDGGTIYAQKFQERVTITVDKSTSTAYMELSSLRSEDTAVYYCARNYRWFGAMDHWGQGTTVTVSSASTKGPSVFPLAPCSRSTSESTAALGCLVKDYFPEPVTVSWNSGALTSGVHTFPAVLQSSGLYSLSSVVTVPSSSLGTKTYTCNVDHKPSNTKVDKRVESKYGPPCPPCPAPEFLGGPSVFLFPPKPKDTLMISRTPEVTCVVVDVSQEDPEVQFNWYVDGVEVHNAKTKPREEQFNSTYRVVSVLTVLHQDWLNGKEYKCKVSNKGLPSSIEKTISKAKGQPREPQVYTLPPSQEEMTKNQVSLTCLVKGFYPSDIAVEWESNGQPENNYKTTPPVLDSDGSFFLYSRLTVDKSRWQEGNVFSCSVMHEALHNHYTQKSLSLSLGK
light: DIVMTQTPLSLSVTPGQPASISCKASQSLDYEGDSDMNWYLQKPGQPPQLLIYGASNLESGVPDRFSGSGSGTDFTLKISRVEAEDVGVYYCQQSTEDPRTFGGGTKVEIKRTVAAPSVFIFPPSDEQLKSGTASVVCLLNNFYPREAKVQWKVDNALQSGNSQESVTEQDSKDSTYSLSSTLTLSKADYEKHKVYACEVTHQGLSSPVTKSFNRGEC
notes: Humanized 22D2 N55D, IgG4 S228P/kappa; also called Hu22D2 VH6/VL3 N55D (Ab 6); hu22D2 VH6/VL3 N55D
- IL-2 production by SEB-stimulated PBMC in combination with anti-PD1, fold over anti-PD-1 alone plus isotype control: 1.45 fold
- IL-2 production by SEB-stimulated PBMC, fold over isotype control: 1.54 fold
